The labels stand for the following.
B1: SPSB1 (parent)
chain: DMRDPTYRPLKQELQGLDYCKPTR
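Note: lentivirally expressed fusions sorted by FACS into six bins by GFP to DsRed ratio, PSI derived from sequencing read proportions per bin multiplied by bin number.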

The variants in the series derive from B1. The series is described as follows: protein stability index of a GFP-peptide fusion (GPS, HEK-293T) (PSI 1-6); higher = more stable. To be noted: c terminus: a fixed tail appended.
Regarding D18E, the protein stability index came out at 2.76.
In the case of E13S, the protein stability index is 3.4.
On to R8V, for which the protein stability index was 3.27.
Regarding T23W, the protein stability index turned out to be 1.76.
Consider P9L, for which the protein stability index stood at 2.58.
As to P9C, the protein stability index is 2.52.
Take K11G: the protein stability index was 3.17.
Turning to D4N, the protein stability index was 2.74.
With R3W, the protein stability index came to 3.14.
The same measure for M2C: 3.01; for M2D: 3.86; for L10C: 2.6.

The values are drawn from the supplement of paper PMC10567573.
